{"source": "paper PMC4108065", "about": "“Inflammation and pancreatic cancer: molecular and functional interactions between S100A8, S100A9, NT-S100A8 and TGFβ1” (Cell Communication and Signaling : CCS, 2014)", "key": {"[1]": {"assay": "S100A8 proteolysis assay in Capan1 conditioned media (MALDI-TOF/MS)", "type": "in vitro ADME, human", "conditions": "3 μM S100A8, Capan1 conditioned medium, 24 hours at 37°C, MALDI-TOF/MS low molecular weight spectra", "experimental": "To obtain BxPC3 and Capan1 conditioned media (CM), 400,000 cells were cultured (75 cm^2 flasks) for 96 hours in RPMI supplemented with 1% FCS and 0.1% gentamycin. In parallel, Ukrain (Nowicky Pharma, Wien, Austria) treated Capan1 CM were obtained as above, the difference being that Ukrain was added 24 hours after cells had been seeded at the final concentration of 5 μM. Complete culture media maintained in a cell culture incubator for 96 hours (negative control), Capan1 and Ukrain-treated Capan1 CM were centrifuged at 1,500 rpm for 10 min, and then immediately mixed with 3 μM S100A8 or 2.5 μM S100A9 (ProSpec-Tany TechnoGene, Ness Ziona, Israel) and maintained at 37°C overnight before MALDI-TOF/MS analyses. Complete culture media, BxPC3 and Capan1 CM, treated as described above, were incubated at 37°C with 200 μM of the S100A8 1–19 N-terminal aminoacid sequence (NT-S100A8) (Primm, Milano, Italy) for 1, 2, 3, 4, 5, 6, 12 and 24 hours before MALDI-TOF/MS analyses. At least three independent sets of experiments were performed for both assays.\nCell culture media were first desalted and purified by ZipTip C18 pipette tips, following the procedure described in the ZipTip user’s guide. […]"}, "[2]": {"system": "BxPC3-SMAD4+ IκBα and Akt phosphorylation", "assay": "Signaling western blot in BxPC3-SMAD4+ cells", "type": "cell-based, human", "conditions": "BxPC3-SMAD4+ vs BxPC3, 10 min, 10 nM S100A8", "experimental": "The pancreatic cancer cell lines used were: Panc1 and Suit2, donated by Prof Aldo Scarpa (University of Verona, Italy); BxPC3, from Dr Andrea Galli (University of Florence, Italy); MiaPaCa2, Capan1 and the human embryonic kidney Hek293 cell lines, supplied by the American Type Culture Collection (Manassas, VA, USA). BxPC3, Capan1 and Panc1 were cultured in RPMI (Gibco/BRL, Gaithhersburg, MD, USA) supplemented with 10% (BxPC3 and Panc1) and 20% (Capan1) fetal calf serum (FCS) (Gibco/BRL), 1% L-glutamine (Gibco/BRL) and 0.1% gentamycin (Gibco/BRL). MiaPaCa2 and Hek293 were cultured in DMEM (Gibco/BRL) supplemented with 10% FCS, 2% L-glutamine and 0.1% Gentamycin. BxPC3 cells were transfected with the expression vector pBK-cytomegalovirus (CMV)-SMAD4/DPC4, as previously described. One SMAD4/DPC4-expressing clone (BxPC3-SMAD4+) was used for the experiments. Smad4 silencing of MiaPaCa2 cells was performed as previously described.\nFive million cells were seeded in Petri dishes (ø 10 cm) and cultured for 24 hours in their respective complete media prior to starting the experiments. […] Lysates were centrifuged for 10 min at 14,000 rpm at 4°C and, in the supernatants, total proteins were measured using the Bio-Rad protein assay (Bio-Rad Laboratories, Milano, Italy). […]"}}}
{"substance": "S100A8: inflammatory calcium binding protein S100A8 (ProSpec-Tany TechnoGene)", "values": [{"measurement": "fragmentation of S100A8 in conditioned medium", "setting": "[1]", "value": "a new peptide was found at 2280 m/z"}, {"measurement": "IκBα phosphorylation in Smad4 expressing BxPC3", "setting": "[2]", "value": "reduced IκBα phosphorylation"}]}
